Data reported in patent US20120269817A1 (Bayer, published 2012).
Substitutions are numbered along the chain they refer to. One block for each binder: values may come before it.

Tests used:
[1] = biological target: T1, human tissue factor pathway inhibitor (TFPI) (human, UniProt P10646 29-304, limits assumed); assay: Biacore, TFPI on CM5 chip, Fab in mobile phase
T1 construct: Bought protein; also called human TFPI; hTFPI
T1 sequence (looked up): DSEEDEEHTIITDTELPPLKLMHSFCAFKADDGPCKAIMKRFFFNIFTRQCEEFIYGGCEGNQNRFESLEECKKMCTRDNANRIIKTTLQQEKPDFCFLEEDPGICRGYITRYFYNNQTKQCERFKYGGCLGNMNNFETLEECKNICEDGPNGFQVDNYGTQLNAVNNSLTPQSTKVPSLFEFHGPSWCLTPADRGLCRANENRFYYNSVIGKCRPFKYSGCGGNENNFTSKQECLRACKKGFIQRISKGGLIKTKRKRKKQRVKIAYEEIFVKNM
Experimental: (§1) Purified Fab antibodies were used to determine EC₅₀ of anti-TFPI antibodies to human or mouse TFPI. EC₅₀ was assessed in an ELISA, similarly as described above. The results were analyzed using SoftMax. The binding affinity of anti-TFPI antibodies was determined in a Biacore assay. Briefly, the antigen, either human or mouse TFPI, was immobilized on the CM5-chips using the amine coupling kit (GE HealthCare) according to the instructions of the manufacturer. The amount of immobilized TFPI was adjusted to the mass of the antigen to give approximate 300 RU. The antibody Fabs were analyzed in mobile phase and at least five different concentrations (0.1, 0.4, 1.6, 6.4 and 25 nM) of the purified antibodies were used in the Biacore assay. The kinetics and binding affinity were calculated using Biacore T100 Evaluation software.

[2] = biological target: T1, human tissue factor pathway inhibitor …; assay: ELISA, Fab on coated TFPI
Experimental: (§2) To select antibody clones that bind to human TFPI, Fab genes of the phage clones from the second and third round of panning were subcloned into a bacterial expression vector and expressed in E. coli strain TG1. The bacterial lysate was added to the wells of the human TFPI-coated Maxisorp plates. After washing, HRP-conjugated goat anti-human Fab was used as a detection antibody and the plates were developed by adding AmplexRed (Invitrogen) with hydrogen peroxide. A signal of at least five-fold higher than the background was considered as positive. The cross reactivity of the anti-human TFPI antibodies to mouse TFPI was determined by a similar mouse TFPI-binding ELISA. The plates were coated with mouse TFPI (R&D System), BSA and lysozyme. The later two antigens were used as negative controls.
as §1

BSA = biological target: T2, BSA (bovine, UniProt P02769 25-607); assay: ELISA
T2 construct: also called bovine serum albumin
T2 sequence (P02769 25-607 limits assumed): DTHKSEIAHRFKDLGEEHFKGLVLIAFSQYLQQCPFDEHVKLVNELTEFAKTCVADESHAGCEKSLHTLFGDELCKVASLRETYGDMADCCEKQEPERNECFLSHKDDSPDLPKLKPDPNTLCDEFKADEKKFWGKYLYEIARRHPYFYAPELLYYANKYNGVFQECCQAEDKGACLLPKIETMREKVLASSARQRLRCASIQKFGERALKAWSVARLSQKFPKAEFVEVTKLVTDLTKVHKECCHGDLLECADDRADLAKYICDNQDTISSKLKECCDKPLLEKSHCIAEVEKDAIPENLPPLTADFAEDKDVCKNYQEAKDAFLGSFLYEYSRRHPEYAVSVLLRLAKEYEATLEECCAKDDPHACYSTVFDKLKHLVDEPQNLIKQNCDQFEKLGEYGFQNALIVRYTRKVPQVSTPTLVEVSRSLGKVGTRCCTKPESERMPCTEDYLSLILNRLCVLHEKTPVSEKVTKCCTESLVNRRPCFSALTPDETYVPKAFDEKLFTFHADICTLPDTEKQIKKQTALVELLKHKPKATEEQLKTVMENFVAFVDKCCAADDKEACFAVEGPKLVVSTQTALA
Experimental: as §2

[3] = biological target: T1, human tissue factor pathway inhibitor …; assay: ELISA, Fab lysate on coated human TFPI
Experimental: as §2

B2: TP-2A10 Fab (Fab, V domains shown)
VH: QVQLVESGGGLVQPGGSLRLSCAASGFTFTSYSMNWVRQAPGKGLEWVSAISYTGSNTHYADSVKGRFTISRDNSKNTLYLQMNSLRAEDTAVYYCARAFLGYKESYFDIWGQGTLVTVSS
VL: DIELTQPPSVSVAPGQTARISCSGDKLGKKYVHWYQQKPGQAPVLVIYGDDKRPSGIPERFSGSNSGNTATLTISGTQAEDEADYYCQAWGSISRFVFGGGTKLTVLG
notes: Human Fab from HuCal Gold, expressed in E. coli TG1
binding result (BSA): no binding | binding result [3]: binds

B3: TP-3A2 Fab (Fab, V domains shown)
VH: QVQLVESGGGLVQPGGSLRLSCAASGFTFSNYYLSWVRQAPGKGLEWVSGISYNGSSTNYADSVKGRFTISRDNSKNTLYLQMNSLRAEDTAVYYCARMWRYSLGADSWGQGTLVTVSS
VL: DIELTQPPSVSVAPGQTARISCSGDNIGSRYAYWYQQKPGQAPVVVIYDDSDRPSGIPERFSGSNSGNTATLTISGTQAEDEADYYCAAYTFYARTVFGGGTKLTVLG
notes: as for B2
binding result (BSA): no binding | binding result [3]: binds

B4: TP-2G2 Fab (Fab, V domains shown)
VH: QVQLVESGGGLVQPGGSLRLSCAASGFTFSSYAMNWVRQAPGKGLEWVSAILSDGSSTSYADSVKGRFTISRDNSKNTLYLQMNSLRAEDTAVYYCARYPDWGWYTDVWGQGTLVTVSS
VL: DIELTQPPSVSVAPGQTARISCSGDNIRKFYVHWYQQKPGQAPVLVIYGTNKRPSGIPERFSGSNSGNTATLTISGTQAEDEADYYCQSYDSKFNTVFGGGTKLTVLG
notes: as for B2
binding result (BSA): no binding | binding result [3]: binds

B5: TP-2F9 Fab (Fab, V domains shown)
VH: QVQLVESGGGLVQPGGSLRLSCAASGFTFYKYAMHWVRQAPGKGLEWVSGIQYDGSYTYYADSVKGRFTISRDNSKNTLYLQMNSLRAEDTAVYYCARYYCKCVDLWGQGTLVTVSS
VL: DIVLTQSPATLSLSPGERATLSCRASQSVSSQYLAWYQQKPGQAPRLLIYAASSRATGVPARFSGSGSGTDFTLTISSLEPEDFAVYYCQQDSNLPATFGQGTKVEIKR
notes: as for B2
binding result (BSA): no binding | binding result [3]: binds

B6: TP-2B8 Fab (Fab, V domains shown)
VH: QVQLVQSGAEVKKPGASVKVSCKASGYTFTGNSMHWVRQAPGQGLEWMGTIFPYDGTTKYAQKFQGRVTMTRDTSISTAYMELSSLRSEDTAVYYCARGVHSYFDYWGQGTLVTVSS
VL: DIELTQPPSVSVAPGQTARISCSGDNLRGYYASWYQQKPGQAPVLVIYEDNNRPSGIPERFSGSNSGNTATLTISGTQAEDEADYYCQSWDSPYVHVFGGGTKLTVLG
notes: as for B2
binding result (BSA): no binding | binding result [3]: binds

B7: TP-2B9 Fab (Fab, V domains shown)
VH: QVQLQQSGPGLVKPSQTLSLTCAISGDSVSSNSAAWGWIRQSPGRGLEWLGMIYHRSKWYNDYAVSVKSRITINPDTSKNQFSLQLNSVTPEDTAVYYCARYSSIGHMDYWGQGTLVTVSS
VL: DIQMTQSPSSLSASVGDRVTITCRASQSIRSYLAWYQQKPGKAPKLLIYKASNLQSGVPSRFSGSGSGTDFTLTISSLQPEDFAVYYCHQYSDSPVTFGQGTKVEIKR
notes: as for B2
binding result (BSA): no binding | binding result [3]: binds

B10: TP-2A6 Fab (Fab, V domains shown)
VH: QVQLVESGGGLVQPGGSLRLSCAASGFTFSRYAMSWVRQAPGKGLEWVSSIISSSSETYYADSVKGRFTISRDNSKNTLYLQMNSLRAEDTAVYYCARLMGYGHYYPFDYWGQGTLVTVSS
VL: DIELTQPPSVSVAPGQTARISCSGDKIGSKYVYWYQQKPGQAPVLVIYDSNRPSGIPERFSGSNSGNTATLTISGTQAEDEADYYCASYDSIYSYWVFGGGTKLTVLG
notes: as for B2
binding result (BSA): no binding | binding result [3]: binds

B13: TP-3B3 Fab (Fab, V domains shown)
VH: QVQLVESGGGLVQPGGSLRLSCAASGFTFSSYGMHWVRQAPGKGLEWVSNISYMGSNTNYADSVKGRFTISRDNSKNTLYLQMNSLRAEDTAVYYCARGLFPGYFDYWGQGTLVTVSS
VL: DIELTQPASVSVAPGQTARISCSGDNLRSKYAHWYQQKPGQAPVLVIYGDNNRPSGIPERFSGSNSGNTATLTISGTQAEDEADYYCSAYAMGSSPVFGGGTKLTVLG
notes: as for B2
binding result (BSA): no binding | binding result [3]: binds

B14: TP-3F1 Fab (Fab, V domains shown)
VH: QVQLVQSGAEVKKPGESLKISCKGSGYSFTDYWIGWVRQMPGKGLEWMGIIQPSDSDTNYSPSFQGQVTISADKSISTAYLQWSSLKASDTAMYYCARFMWWGKYDSGFDVWGQGTLVTVSS
VL: DIELTQPPSVSVAPGQTARISCSGDNIGSYFASWYQQKPGQAPVLVIYDDSNRPSGIPERFSGSNSGNTATLTISGTQAEDEADYYCEGSNVFGGGTKLTVLG
notes: as for B2
binding result (BSA): no binding

B15: TP-2D7 Fab (Fab, V domains shown)
VH: QVQLQQSGPGLVKPSQTLSLTCAISGDSVSSNSAAWGWIRQSPGRGLEWLGLIYYRSKWYNDYAVSVKSRITINPDTSKNQFSLQLNSVTPEDTAVYYCARFGDTNRNGTDVWGQGTLVTVSS
VL: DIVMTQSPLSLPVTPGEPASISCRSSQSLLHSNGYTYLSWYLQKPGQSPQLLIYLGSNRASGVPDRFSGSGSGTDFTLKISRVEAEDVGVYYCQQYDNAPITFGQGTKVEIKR
notes: as for B2
binding result (BSA): no binding | binding result [3]: binds

Second part, the binder after the results:

Kd [1]: 7.6 nM | EC50 [2]: 0.17 nM | binding result (BSA): no binding
B1: TP-4A9 Fab (Fab, V domains shown)
VH: QVQLVESGGGLVQPGGSLRLSCAASGFTFSSYGMSWVRQAPGKGLEWVSLISGVSSSTYYADSVKGRFTISRDNSKNTLYLQMNSLRAEDTAVYYCARSYLGYFDVWGQGTLVTVSS
VL: DIELTQPPSVSVAPGQTARISCSGDALGKYYASWYQQKPGQAPVLVIYGDNKRPSGIPERFSGSNSGNTATLTISGTQAEDEADYYCQSYTTRSLVFGGGTKLTVLG
notes: as for B2

binding result (BSA): no binding | binding result [3]: binds
B8: TP-2E3 Fab (Fab, V domains shown)
VH: B7 VH with H55Y, Y102V, S103N, S104Q, I105Y, G106T, H107S, M108S
VL: DIALTQPASVSGSPGQSITISCTGTSSDIGGYNYVSWYQQHPGKAPKLMIYGVNYRPSGVSNRFSGSKSGNTASLTISGLQAEDEADYYCSSADKFTMSIVFGGGTKLTVLG
notes: as for B2

binding result (BSA): no binding | binding result [3]: binds
B9: TP-2B1 Fab (Fab, V domains shown)
VH: QVQLVESGGGLVQPGGSLRLSCAASGFTFSSYSMSWVRQASGKGLEWVSSIKGSGSNTYYADSVKGRFTISRDNSKNTLYLQMNSLRAEDTAVYYCARNGGLIDVWGQGTLVTVSS
VL: DIELTQPPSVSVAPGQTARISCSGDNLGNKYAHWYQQKPGQAPVLVIYYDNKRPSGIPERFSGSNSGNTATLTISGTQAEDEADYYCQSWTPGSNTMVFGGGTRLTVLG
notes: as for B2

binding result (BSA): no binding | binding result [3]: binds
B11: TP-3A3 Fab (Fab, V domains shown)
VH: QVQLVESGGGLVQPGGSLRLSCAASGFTFNNNAISWVRQAPGKGLEWVSAINSSSSSTSYADSVKGRFTISRDNSKNTLYLQMNSLRAEDTAVYYCARGHHRGHSWASFIDYWGQGTLVTVSS
VL: DIELTQPPSVSVAPGQTARISCSGDNIGSKYVHWYQQKPGQAPVVVIYEDSDRPSGIPERFSGSNSGNTATLTISGTQAEDEADYYCQSWDKSEGYVFGGGTKLTVLG
notes: as for B2

binding result (BSA): no binding | binding result [3]: binds
B12: TP-2G4 Fab (Fab, V domains shown)
VH: B13 VH with G33A, H35T, M54S, N59Y, G99V, L100G, F101Y, P102Y, G103Y, Y104G
VL: DIELTQPPSVSVAPGQTARISCSGDALRKHYVYWYQQKPGQAPVLVIYGDNNRPSGIPERFSGSNSGNTATLTISGTQAEDEADYYCQSYDKPYPILVFGGGTKLTVLG
notes: as for B2

binding result (BSA): no binding | binding result [3]: binds
B16: TP-3C3 Fab (Fab, V domains shown)
VH: B15 VH with L52V, F102A, G103R, D104A, T105K, N106K, R107S, N108G, T110F, V112Y
VL: DIQMTQSPSSLSASVGDRVTITCRASQSINPYLNWYQQKPGKAPKLLIYAASNLQSGVPSRFSGSGSGTDFTLTISSLQPEDFAVYYCQQLDNRSITFGQGTKVEIKR
notes: as for B2

binding result (BSA): no binding | binding result [3]: binds
B17: TP-2B4 Fab (Fab, V domains shown)
VH: QVQLVESGGGLVQPGGSLRLSCAASGFTFSNYSMTWVRQAPGKGLEWVSGISYNGSNTYYADSVKGRFTISRDNSKNTLYLQMNSLRAEDTAVYYCARIYYMNLLAGWGQGTLVTVSS
VL: DIELTQPPSVSVAPGQTARISCSGDALGTYYAYWYQQKPGQAPVLVIYGDMNRPSGIPERFSGSNSGNTATLTISGTQAEDEADYYCQSYDAGVKPAVFGGGTKLTVLG
notes: as for B2
